These results are taken from paper PMC4701059 (Molecular microbiology, 2015).

The target in one series is ComP(CD) (his6-ComP(CD)) (Bacillus subtilis, UniProt Q99027). Put plainly: autophosphorylation with γ-32P-ATP, SDS-PAGE, phosphorimaging. Conditions: 0.5 mM ATP; 20 mM MgCl2, pH 8-8.5, 24°C; labelled compound. Type of series: biochemical.
In the next series the target is T1, ComA;Rap60 (Bacillus subtilis (genomic DNA; strain …, UniProt P14204;Q45456 2-214;2-375, |).
T1 sequence 1: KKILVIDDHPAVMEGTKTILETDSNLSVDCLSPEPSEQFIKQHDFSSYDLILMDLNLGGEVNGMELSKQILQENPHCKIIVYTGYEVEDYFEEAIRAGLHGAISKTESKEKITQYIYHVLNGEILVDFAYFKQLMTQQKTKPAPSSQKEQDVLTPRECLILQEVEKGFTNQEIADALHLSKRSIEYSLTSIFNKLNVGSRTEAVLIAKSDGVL
T1 sequence 2: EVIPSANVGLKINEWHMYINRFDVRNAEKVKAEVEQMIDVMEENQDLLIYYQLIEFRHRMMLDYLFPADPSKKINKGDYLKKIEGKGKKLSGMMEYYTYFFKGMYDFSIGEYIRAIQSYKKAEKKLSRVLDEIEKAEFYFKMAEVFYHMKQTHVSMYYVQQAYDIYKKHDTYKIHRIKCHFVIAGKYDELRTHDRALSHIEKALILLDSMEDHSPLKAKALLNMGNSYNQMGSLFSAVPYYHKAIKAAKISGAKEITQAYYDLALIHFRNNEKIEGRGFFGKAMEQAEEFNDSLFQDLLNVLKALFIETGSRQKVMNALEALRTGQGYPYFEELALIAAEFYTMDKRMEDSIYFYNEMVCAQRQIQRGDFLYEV
Put plainly: EMSA.

The target of the next series is T2, ComA;Rap60(R26A) (Bacillus subtilis (genomic DNA; strain …, UniProt P14204;Q45456 2-214;2-375, |R26A).
T2 sequence 1: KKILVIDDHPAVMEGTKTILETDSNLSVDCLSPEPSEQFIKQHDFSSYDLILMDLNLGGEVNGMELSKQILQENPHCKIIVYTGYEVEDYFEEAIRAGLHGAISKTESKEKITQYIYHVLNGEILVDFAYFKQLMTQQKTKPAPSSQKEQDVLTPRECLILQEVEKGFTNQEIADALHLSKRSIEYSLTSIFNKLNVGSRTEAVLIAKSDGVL
T2 sequence 2: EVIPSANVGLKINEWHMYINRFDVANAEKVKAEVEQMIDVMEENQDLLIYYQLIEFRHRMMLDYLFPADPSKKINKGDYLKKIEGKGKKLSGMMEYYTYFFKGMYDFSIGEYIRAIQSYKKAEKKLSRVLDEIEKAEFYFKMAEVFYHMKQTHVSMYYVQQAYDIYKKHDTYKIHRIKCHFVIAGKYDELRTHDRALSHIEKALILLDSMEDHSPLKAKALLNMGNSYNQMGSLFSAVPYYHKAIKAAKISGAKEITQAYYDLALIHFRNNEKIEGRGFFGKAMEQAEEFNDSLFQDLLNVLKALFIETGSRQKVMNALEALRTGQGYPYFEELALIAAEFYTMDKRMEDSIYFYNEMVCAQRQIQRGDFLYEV
Put plainly: EMSA.

A further series addresses T3, ComA;Rap60(R26P) (Bacillus subtilis (genomic DNA; strain …, UniProt P14204;Q45456 2-214;2-375, |R26P).
T3 sequence 1: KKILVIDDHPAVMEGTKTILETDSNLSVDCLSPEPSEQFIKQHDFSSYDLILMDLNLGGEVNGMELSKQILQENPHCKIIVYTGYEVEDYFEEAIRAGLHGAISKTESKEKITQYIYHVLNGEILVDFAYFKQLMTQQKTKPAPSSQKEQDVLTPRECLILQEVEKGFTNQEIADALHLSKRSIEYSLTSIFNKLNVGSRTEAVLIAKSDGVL
T3 sequence 2: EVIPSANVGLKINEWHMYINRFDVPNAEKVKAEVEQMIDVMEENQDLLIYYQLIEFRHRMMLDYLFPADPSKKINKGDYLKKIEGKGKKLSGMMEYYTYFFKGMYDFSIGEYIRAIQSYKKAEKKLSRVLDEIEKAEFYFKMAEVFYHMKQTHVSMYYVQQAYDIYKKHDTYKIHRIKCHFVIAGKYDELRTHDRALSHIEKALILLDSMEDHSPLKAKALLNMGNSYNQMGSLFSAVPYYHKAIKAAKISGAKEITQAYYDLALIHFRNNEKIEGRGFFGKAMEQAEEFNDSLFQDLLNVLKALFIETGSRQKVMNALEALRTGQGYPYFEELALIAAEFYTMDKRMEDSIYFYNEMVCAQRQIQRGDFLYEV
The series can be described thus: EMSA. A general note: In EMSA bound probe runs differently from free probe, usually more slowly.

In a further series the target is T4, ComA (Bacillus subtilis (genomic DNA; strain …, UniProt P14204 2-214).
T4 sequence: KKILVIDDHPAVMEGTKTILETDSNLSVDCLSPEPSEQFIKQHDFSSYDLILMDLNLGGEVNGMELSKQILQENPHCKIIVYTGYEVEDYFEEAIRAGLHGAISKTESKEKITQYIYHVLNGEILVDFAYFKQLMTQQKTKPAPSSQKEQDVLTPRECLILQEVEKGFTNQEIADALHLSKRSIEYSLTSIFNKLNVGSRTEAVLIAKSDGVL
Put plainly: EMSA.

The next series concerns the target T5, Rap60 (Bacillus subtilis plasmid pTA1060, UniProt Q45456 2-375).
T5 sequence: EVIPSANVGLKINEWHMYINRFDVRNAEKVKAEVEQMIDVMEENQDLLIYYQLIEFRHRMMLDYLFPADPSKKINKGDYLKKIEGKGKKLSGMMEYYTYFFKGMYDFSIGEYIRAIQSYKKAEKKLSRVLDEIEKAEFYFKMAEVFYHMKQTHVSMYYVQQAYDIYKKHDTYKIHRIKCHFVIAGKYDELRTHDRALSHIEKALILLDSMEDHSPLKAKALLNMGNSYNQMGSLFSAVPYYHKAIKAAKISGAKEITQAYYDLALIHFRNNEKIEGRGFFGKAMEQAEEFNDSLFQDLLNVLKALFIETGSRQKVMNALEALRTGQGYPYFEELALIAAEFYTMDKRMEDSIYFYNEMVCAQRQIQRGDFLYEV
The series can be described thus: EMSA.

The next series deals with T6, ComA;Rap60(N27A) (Bacillus subtilis (genomic DNA; strain …, UniProt P14204;Q45456 2-214;2-375, |N27A).
T6 sequence 1: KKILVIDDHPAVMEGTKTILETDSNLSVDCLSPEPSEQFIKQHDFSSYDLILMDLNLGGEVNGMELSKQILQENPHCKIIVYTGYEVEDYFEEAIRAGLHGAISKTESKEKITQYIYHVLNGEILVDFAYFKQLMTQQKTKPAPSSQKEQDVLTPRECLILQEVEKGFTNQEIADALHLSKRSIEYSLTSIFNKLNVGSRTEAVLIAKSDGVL
T6 sequence 2: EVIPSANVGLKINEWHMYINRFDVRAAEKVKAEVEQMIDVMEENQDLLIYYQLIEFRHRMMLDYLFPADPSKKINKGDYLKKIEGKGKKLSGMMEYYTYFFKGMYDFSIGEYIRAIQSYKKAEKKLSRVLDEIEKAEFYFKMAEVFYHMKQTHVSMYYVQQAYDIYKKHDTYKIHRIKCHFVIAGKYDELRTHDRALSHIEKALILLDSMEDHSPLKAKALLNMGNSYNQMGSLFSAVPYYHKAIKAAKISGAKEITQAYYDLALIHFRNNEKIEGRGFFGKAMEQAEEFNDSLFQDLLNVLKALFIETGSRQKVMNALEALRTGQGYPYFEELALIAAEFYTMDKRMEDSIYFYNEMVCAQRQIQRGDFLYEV
The series can be described thus: EMSA.

Sequence of ComP(CD) (his6-ComP(CD)) (Q99027 384-769): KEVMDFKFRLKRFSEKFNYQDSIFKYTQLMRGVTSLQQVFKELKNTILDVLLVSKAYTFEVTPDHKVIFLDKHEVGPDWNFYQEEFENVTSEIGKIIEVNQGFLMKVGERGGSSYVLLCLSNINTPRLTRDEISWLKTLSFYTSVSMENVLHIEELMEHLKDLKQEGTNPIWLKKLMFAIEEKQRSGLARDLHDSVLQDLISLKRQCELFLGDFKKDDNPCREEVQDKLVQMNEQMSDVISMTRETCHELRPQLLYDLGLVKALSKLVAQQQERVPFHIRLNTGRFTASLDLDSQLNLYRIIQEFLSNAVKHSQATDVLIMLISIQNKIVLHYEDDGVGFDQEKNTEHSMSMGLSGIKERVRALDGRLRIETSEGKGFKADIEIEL

In the case of `Nc1ncnc2c1ncn2[C@@H]1O[C@H](COP(=O)(O)OP(=O)(O)OP(=O)(O)O)[C@@H](O)[C@H]1O` [ATP], the “autophosphorylation with γ-32P-ATP, SDS-PAGE, phosphorimaging” value on ComP(CD) (his6-ComP(CD)) is listed as “ComP autophosphorylation, ComP~P dephosphorylation, phosphotransfer from ComP to ComA”.

B1: minimal consensus ComA binding site (dsDNA)
DNA 1: TCATTGCGGCATCCCGCAAGAAACTTTGCGGTC
DNA 2: GACCGCAAAGTTTCTTGCGGGATGCCGCAATGA
For B1, the binding result in the series with ComA;Rap60 was “binds”; in the series with ComA;Rap60(R26A), “binds”; with ComA;Rap60(R26P) it was “binds”; in the series with ComA, “binds”; with Rap60, “no binding”; in the series with ComA;Rap60(N27A), “binds”.
